Results as given in paper PMC6173284.

Biological target: His-tagged Vps5 dimer from Chaetomium thermophilum (Chaetomium thermophilum)
Experiment: SEC-MALS

- stoichiometry N: 2
Substance: His-tagged Vps5 dimer from Chaetomium thermophilum (natural protein)
